Measurements published in the FLAb antibody collection (doi:10.1101/2023.12.08.570889).

Target: TSLP, Q969D9
Assay: Kd (SPR)

| Binder | Kd [nM] |
| --- | --- |
| unnamed (protein) chain 1: QMQLVESGGGVVQPGRSLRLSCAASGFTFSTFAMHWVRQAPGKGLEWVAVIWYDGSNKHYADSVKGRFTITRDNSKNTLNLQMNSLRAEDTAVYYCARAPRYDDLYEAFDVWGQGTMVTVSS chain 2: SYVLTQPPSVSVAPGQTARITCGGNNLGSKSVHWYQQKPGQAPVLVVYDDSDRPSWIPERFSGSNSGNTATLTISRGEAGDEADYYCQVWDSSSDHVVFGGGTKLTVL | 188 |
| unnamed (protein) chain 1: QMQLVESGGGVVQPGRSLRLSCAASGFTFSTYAMHWVRQAPGKGLEWVAVIWYDGSNKHYADSVKGRFTITRDNSKNTLNLQMNSLRAEDTAVYYCARAPRYDYYWEAFDVWGQGTMVTVSS chain 2: SYVLTQPPSVSVAPGQTARITCGGNNLGSKSVHWYQQKPGQAPVLVVYDDSDRPSWIPERFSGSNSGNTATLTISRGEAGDEADYYCQVWDSSSDHVVFGGGTKLTVL | 151 |
| unnamed (protein) chain 1: QMQLVESGGGVVQPGRSLRLSCAASGFTFSTFAMHWVRQAPGKGLEWVAVIWYDGSNKHYADSVKGRFTITRDNSKNTLNLQMNSLRAEDTAVYYCARAPRYDEDYEAFDVWGQGTMVTVSS chain 2: SYVLTQPPSVSVAPGQTARITCGGNNLGSKSVHWYQQKPGQAPVLVVYDDSDRPSWIPERFSGSNSGNTATLTISRGEAGDEADYYCQVWDSSSDHVVFGGGTKLTVL | 148 |
| unnamed (protein) chain 1: QMQLVESGGGVVQPGRSLRLSCAASGFTFSSFAMHWVRQAPGKGLEWVAVIWYDGSNKHYADSVKGRFTITRDNSKNTLNLQMNSLRAEDTAVYYCARAPRYDEYYEAFDVWGQGTMVTVSS chain 2: SYVLTQPPSVSVAPGQTARITCGGNNLGSKSVHWYQQKPGQAPVLVVYDDSDRPSWIPERFSGSNSGNTATLTISRGEAGDEADYYCQVWDSSSDHVVFGGGTKLTVL | 186 |
| unnamed (protein) chain 1: QMQLVESGGGVVQPGRSLRLSCAASGFTFSTFAMHWVRQAPGKGLEWVAVIWYDGSNKHYADSVKGRFTITRDNSKNTLNLQMNSLRAEDTAVYYCARAPRYYDYWEAFDVWGQGTMVTVSS chain 2: SYVLTQPPSVSVAPGQTARITCGGNNLGSKSVHWYQQKPGQAPVLVVYDDSDRPSWIPERFSGSNSGNTATLTISRGEAGDEADYYCQVWDSSSDHVVFGGGTKLTVL | 221 |
| unnamed (protein) chain 1: QMQLVESGGGVVQPGRSLRLSCAASGFTFSTYAMHWVRQAPGKGLEWVAVIWYDGSNKHYADSVKGRFTITRDNSKNTLNLQMNSLRAEDTAVYYCARAPRYDDYLEAFDVWGQGTMVTVSS chain 2: SYVLTQPPSVSVAPGQTARITCGGNNLGSKSVHWYQQKPGQAPVLVVYDDSDRPSWIPERFSGSNSGNTATLTISRGEAGDEADYYCQVWDSSSDHVVFGGGTKLTVL | 152 |
| unnamed (protein) chain 1: QMQLVESGGGVVQPGRSLRLSCAASGFTFSTYAMHWVRQAPGKGLEWVAVIWYDGSNKHYADSVKGRFTITRDNSKNTLNLQMNSLRAEDTAVYYCARAPRYDEDYEAFDVWGQGTMVTVSS chain 2: SYVLTQPPSVSVAPGQTARITCGGNNLGSKSVHWYQQKPGQAPVLVVYDDSDRPSWIPERFSGSNSGNTATLTISRGEAGDEADYYCQVWDSSSDHVVFGGGTKLTVL | 184 |
| unnamed (protein) chain 1: QMQLVESGGGVVQPGRSLRLSCAASGFTFSTFAMHWVRQAPGKGLEWVAVIWYDGSNKHYADSVKGRFTITRDNSKNTLNLQMNSLRAEDTAVYYCARAPRYDWYLEAFDVWGQGTMVTVSS chain 2: SYVLTQPPSVSVAPGQTARITCGGNNLGSKSVHWYQQKPGQAPVLVVYDDSDRPSWIPERFSGSNSGNTATLTISRGEAGDEADYYCQVWDSSSDHVVFGGGTKLTVL | 157 |
| unnamed (protein) chain 1: QMQLVESGGGVVQPGRSLRLSCAASGFTFSTFAMHWVRQAPGKGLEWVAVIWYDGSNKHYADSVKGRFTITRDNSKNTLNLQMNSLRAEDTAVYYCARAPRYDDRYEAFDVWGQGTMVTVSS chain 2: SYVLTQPPSVSVAPGQTARITCGGNNLGSKSVHWYQQKPGQAPVLVVYDDSDRPSWIPERFSGSNSGNTATLTISRGEAGDEADYYCQVWDSSSDHVVFGGGTKLTVL | 490 |
| unnamed (protein) chain 1: QMQLVESGGGVVQPGRSLRLSCAASGFTFSTFAMHWVRQAPGKGLEWVAVIWYDGSNKHYADSVKGRFTITRDNSKNTLNLQMNSLRAEDTAVYYCARSPRYDDYYEAFDVWGQGTMVTVSS chain 2: SYVLTQPPSVSVAPGQTARITCGGNNLGSKSVHWYQQKPGQAPVLVVYDDSDRPSWIPERFSGSNSGNTATLTISRGEAGDEADYYCQVWDSSSDHVVFGGGTKLTVL | 172 |
| unnamed (protein) chain 1: QMQLVESGGGVVQPGRSLRLSCAASGFTFSSYAMHWVRQAPGKGLEWVAVIWYDGSNKHYADSVKGRFTITRDNSKNTLNLQMNSLRAEDTAVYYCARAPRYDDYYEAFDVWGQGTMVTVSS chain 2: SYVLTQPPSVSVAPGQTARITCGGNNLGSKSVHWYQQKPGQAPVLVVYDDSDRPSWIPERFSGSNSGNTATLTISRGEAGDEADYYCQVWDSSSDHVVFGGGTKLTVL | 153 |
| unnamed (protein) chain 1: QMQLVESGGGVVQPGRSLRLSCAASGFTFSTYAMHWVRQAPGKGLEWVAVIWYDGSNKHYADSVKGRFTITRDNSKNTLNLQMNSLRAEDTAVYYCARAPRYDDLYEAFDVWGQGTMVTVSS chain 2: SYVLTQPPSVSVAPGQTARITCGGNNLGSKSVHWYQQKPGQAPVLVVYDDSDRPSWIPERFSGSNSGNTATLTISRGEAGDEADYYCQVWDSSSDHVVFGGGTKLTVL | 188 |
| unnamed (protein) chain 1: QMQLVESGGGVVQPGRSLRLSCAASGFTFSTFAMHWVRQAPGKGLEWVAVIWYDGSNKHYADSVKGRFTITRDNSKNTLNLQMNSLRAEDTAVYYCARAPRYDDEYEAFDVWGQGTMVTVSS chain 2: SYVLTQPPSVSVAPGQTARITCGGNNLGSKSVHWYQQKPGQAPVLVVYDDSDRPSWIPERFSGSNSGNTATLTISRGEAGDEADYYCQVWDSSSDHVVFGGGTKLTVL | 180 |
| unnamed (protein) chain 1: QMQLVESGGGVVQPGRSLRLSCAASGFTFSTYAMHWVRQAPGKGLEWVAVIWYDGSNKHYADSVKGRFTITRDNSKNTLNLQMNSLRAEDTAVYYCARAPRYDEYYEAFDVWGQGTMVTVSS chain 2: SYVLTQPPSVSVAPGQTARITCGGNNLGSKSVHWYQQKPGQAPVLVVYDDSDRPSWIPERFSGSNSGNTATLTISRGEAGDEADYYCQVWDSSSDHVVFGGGTKLTVL | 224 |
| unnamed (protein) chain 1: QMQLVESGGGVVQPGRSLRLSCAASGFTFSTFAMHWVRQAPGKGLEWVAVIWYDGSNKHYADSVKGRFTITRDNSKNTLNLQMNSLRAEDTAVYYCARAPRYYYYYEAFDVWGQGTMVTVSS chain 2: SYVLTQPPSVSVAPGQTARITCGGNNLGSKSVHWYQQKPGQAPVLVVYDDSDRPSWIPERFSGSNSGNTATLTISRGEAGDEADYYCQVWDSSSDHVVFGGGTKLTVL | 208 |
| unnamed (protein) chain 1: QMQLVESGGGVVQPGRSLRLSCAASGFTFSTFAMHWVRQAPGKGLEWVAVIWYDGSNKHYADSVKGRFTITRDNSKNTLNLQMNSLRAEDTAVYYCARAPRYDEEYEAFDVWGQGTMVTVSS chain 2: SYVLTQPPSVSVAPGQTARITCGGNNLGSKSVHWYQQKPGQAPVLVVYDDSDRPSWIPERFSGSNSGNTATLTISRGEAGDEADYYCQVWDSSSDHVVFGGGTKLTVL | 240 |
| unnamed (protein) chain 1: QMQLVESGGGVVQPGRSLRLSCAASGFTFSTYAMHWVRQAPGKGLEWVAVIWYDGSNKHYADSVKGRFTITRDNSKNTLNLQMNSLRAEDTAVYYCARSPRYDEYYEAFDVWGQGTMVTVSS chain 2: SYVLTQPPSVSVAPGQTARITCGGNNLGSKSVHWYQQKPGQAPVLVVYDDSDRPSWIPERFSGSNSGNTATLTISRGEAGDEADYYCQVWDSSSDHVVFGGGTKLTVL | 219 |
| unnamed (protein) chain 1: QMQLVESGGGVVQPGRSLRLSCAASGFTFSTYAMHWVRQAPGKGLEWVAVIWYDGSNKHYADSVKGRFTITRDNSKNTLNLQMNSLRAEDTAVYYCARAPRYDEYVEAFDVWGQGTMVTVSS chain 2: SYVLTQPPSVSVAPGQTARITCGGNNLGSKSVHWYQQKPGQAPVLVVYDDSDRPSWIPERFSGSNSGNTATLTISRGEAGDEADYYCQVWDSSSDHVVFGGGTKLTVL | 195 |
| unnamed (protein) chain 1: QMQLVESGGGVVQPGRSLRLSCAASGFTFSTFAMHWVRQAPGKGLEWVAVIWYDGSNKHYADSVKGRFTITRDNSKNTLNLQMNSLRAEDTAVYYCARAPRYDDYLEAFDVWGQGTMVTVSS chain 2: SYVLTQPPSVSVAPGQTARITCGGNNLGSKSVHWYQQKPGQAPVLVVYDDSDRPSWIPERFSGSNSGNTATLTISRGEAGDEADYYCQVWDSSSDHVVFGGGTKLTVL | 159 |
